Measured values reported in doi:10.1101/2024.03.23.586376 (bioRxiv, 2024).

B1: wild-type TFEB (transcription factor EB), C-terminal GFP-tagged construct (natural protein, UniProt P19484 1-476, looked up)
chain: MASRIGLRMQLMREQAQQEEQRERMQQQAVMHYMQQQQQQQQQQLGGPPTPAINTPVHFQSPPPVPGEVLKVQSYLENPTSYHLQQSQHQKVREYLSETYGNKFAAHISPAQGSPKPPPAASPGVRAGHVLSSSAGNSAPNSPMAMLHIGSNPERELDDVIDNIMRLDDVLGYINPEMQMPNTLPLSSSHLNVYSSDPQVTASLVGVTSSSCPADLTQKRELTDAESRALAKERQKKDNHNLIERRRRFNINDRIKELGMLIPKANDLDVRWNKGTILKASVDYIRRMQKDLQKSRELENHSRRLEMTNKQLWLRIQELEMQARVHGLPTTSPSGMNMAELAQQVVKQELPSEEGPGEALMLGAEVPDPEPLPALPPQAPLPLPTQPPSPFHHLDFSHSLSFGGREDEGPPGYPEPLAPGHGSPFPSLSKKDLDLMLLDDSLLPLASDPLLSTMSPEASKASSRRSSFSMEEGDVL
B2: Δ30-TFEB, mutant TFEB construct lacking the first 30 amino acids (RagC binding site), C-terminal GFP-tagged (domain or fragment, UniProt P19484 31-476, looked up)
chain: MHYMQQQQQQQQQQLGGPPTPAINTPVHFQSPPPVPGEVLKVQSYLENPTSYHLQQSQHQKVREYLSETYGNKFAAHISPAQGSPKPPPAASPGVRAGHVLSSSAGNSAPNSPMAMLHIGSNPERELDDVIDNIMRLDDVLGYINPEMQMPNTLPLSSSHLNVYSSDPQVTASLVGVTSSSCPADLTQKRELTDAESRALAKERQKKDNHNLIERRRRFNINDRIKELGMLIPKANDLDVRWNKGTILKASVDYIRRMQKDLQKSRELENHSRRLEMTNKQLWLRIQELEMQARVHGLPTTSPSGMNMAELAQQVVKQELPSEEGPGEALMLGAEVPDPEPLPALPPQAPLPLPTQPPSPFHHLDFSHSLSFGGREDEGPPGYPEPLAPGHGSPFPSLSKKDLDLMLLDDSLLPLASDPLLSTMSPEASKASSRRSSFSMEEGDVL

Target: RagC (human (endogenous in H1HeLa), UniProt Q9HB90 1-399)
Test: co-IP

Sequence of RagC (Q9HB90 whole entry): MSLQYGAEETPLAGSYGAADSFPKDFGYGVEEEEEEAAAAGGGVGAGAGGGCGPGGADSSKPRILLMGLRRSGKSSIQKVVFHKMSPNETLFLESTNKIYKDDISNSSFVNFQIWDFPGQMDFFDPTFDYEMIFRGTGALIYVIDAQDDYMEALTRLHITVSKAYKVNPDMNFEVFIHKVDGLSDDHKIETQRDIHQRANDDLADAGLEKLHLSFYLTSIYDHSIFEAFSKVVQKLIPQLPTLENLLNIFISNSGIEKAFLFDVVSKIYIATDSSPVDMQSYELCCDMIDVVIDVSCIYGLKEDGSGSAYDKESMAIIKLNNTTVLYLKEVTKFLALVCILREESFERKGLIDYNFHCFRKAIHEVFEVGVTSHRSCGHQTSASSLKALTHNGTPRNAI

Binder	TFEB/RagC ratio in the co-IP (densitometry), EV-D68-infected cells	TFEB/RagC ratio in the co-IP (densitometry), mock-infected cells
B1	0.4	1.04
B2	0.22	0.18
